Assay [1] concerns Propionibacterium acnes. The experiment in a line: Minimum inhibitory concentration (MIC) determination, Example 6. As to conditions: listed as #10. The class given is cell-based. How it is done: (§1) The minimal inhibitory concentration (MIC) determination method is as follows. First prepare a colony suspension in 0.9% saline to an OD600 of 0.05 to prepare an inoculum, which corresponds to 10^7 colony-forming units per mL (cfu/mL). The suspension was diluted 20 times in agar-free enhanced Clostridium medium (RCM) to an inoculum of 5*10^5 cfu/mL. Prepare 2-fold serial dilutions of PACL10 or vancomycin with 0.9% saline and add no more than one-tenth of the total culture. Cultures were grown anaerobically at 37° C. for 3 days. The MIC is the lowest concentration of PACL10 or vancomycin at which no growth of P. acnes can be observed with the naked eye. The minimum bactericidal concentration (MBC) was determined by subculturing the above cultures on enhanced Clostridium agar (RCA) plates containing 0.1% Tween-80. MBC is the lowest concentration of PACL10 or vancomycin at which no P. acnes colonies are seen on the enhanced Clostridium agar (RCA) plate.

Another assay concerns P. acnes 34A strain. The experiment in a line: Time sterilization (time killing) test. As to conditions: 50 mM sodium phosphate pH 6.0. The class given is cell-based, Propionibacterium acnes. The procedure:
The time sterilization test method is as follows. Resuspend the P. acnes 34A strain colony in 0.9% saline to an OD600 of 0.05, which corresponds to 10^7 cfu/mL. The suspension was diluted 10-fold in 50 mM sodium phosphate (pH 6.0) to ˜10^6 cfu/mL. Add 0, 0.5×, 1×, 2× MIC of two-fold serial dilutions of PACL10 to the 34A strain, respectively. Ten-fold serial dilutions (0, 1, 2, 3 log) from the assay were plated on enhanced Clostridium agar (RCA) at each time point and incubated anaerobically at 37° C. for 3 days.

Assay [2] concerns Propionibacterium acnes. The experiment in a line: MIC of selected lysin after single-step purification, Example 8. It counts as cell-based. The note with it: single-step purified lysin. The procedure: Express PACL 10, 390, 391, 392, 403 and 404 according to the method of Examples 1-4, and perform the following single-step purification: put Escherichia coli BL21 (DE3) containing each recombinant expression plasmid in the self-induction medium incubate at 37° C., 300 rpm for 3 hours, then at 18° C., 300 rpm for 16-18 hours. Cells were collected by centrifugation and lysed by homogenizatoin under high pressure. Clarified lysate from 1 L of E. coli culture medium expressing the protein of interest was loaded onto a 26 mm/200 mm column containing 70 mL of purification resin. The lysin was purified according to the conditions in Table 8-1, and the purity determination of the lyase after single-step purification is shown in FIG. 5. These lysin are used to determine the minimal inhibitory concentration (MIC).
The minimal inhibitory concentration (MIC) determination method is as follows. Propionibacterium acnes is streaked on Fortified Clostridium Agar (Fortified Clostridium Medium RCM with 1.5% agar, RCM was prepared according to the revised recipe, per liter—10 g acid hydrolyzed casein, 10 g beef extract, 3 g yeast extract, 5 g D—glucose, 5 g sodium chloride, 3 g sodium acetate, 0.5 g L-cysteine hydrochloride). Plates were incubated anaerobically at 37° C. for 72 hours. The inoculum for MIC determination was first prepared by resuspending single clones from RCA in 0.9% saline to an OD600 of 0.05, corresponding to 10^7 colony-forming units per milliliter (cfu/mL). The suspension was diluted 20-fold in RCM to an inoculum of 5*10^5 cfu/mL. Two-fold serial dilutions of each lyase were prepared in 0.9% saline and added not to exceed one-tenth of the total culture volume. Cultures were grown anaerobically at 37° C. for 48-72 hours. The MIC is the lowest concentration of lyase at which no growth of P. acnes can be observed with the naked eye.

For assay [3], the system named is Propionibacterium acnes. In words: Minimum bactericidal concentration (MBC) determination, Example 6. As to conditions: listed as #10. It counts as cell-based. The procedure:
as §1

Assay [4] has as its system biofilm-associated P. acnes strain 10. In words: Killing of biofilm-associated P. acnes (CFU count). The class given is cell-based, Propionibacterium acnes. The note with it: strain 10 biofilm, treated overnight at 25° C. under anaerobic conditions. The procedure: Strain 10 with an OD600 of 1.0 was added to a 96-well polystyrene plate to inoculate the biofilm overnight in an anaerobic gas mixture. The supernatant was removed and the wells were gently rinsed with 0.9% NaCl. Biofilm formation medium (RCM+5% glucose) was added to allow biofilm growth overnight in the anaerobic gas mixture. The medium was removed and the wells were gently rinsed with 0.9% NaCl. Biofilms were then treated with buffer or PACL403 overnight at 25° C. under anaerobic conditions. The buffer or PACL403 was removed and the wells were rinsed with 0.9% NaCl. Resuspend in 0.9% NaCl, plate on RCM agar and count biofilm-associated CFU.

Values joined by “and” are separate entries in the source; they are usually repeats but may differ in a detail not shown here. Equal entries are not always repeated.

B1: PACL10: phage lysin, amino acid sequence SEQ ID NO: 10; 29.4 kDa (protein)
chain: MTFIQAAHHSSGSNLPPTRVVIHATCPELGFPRASAKGRAVSTARYFQSAISGGSAHYVVDVGETVQCLAEDVIAWHAPPNSRSLGIEICADGGSATSFKNPNVRYSRAQWLSPQVWPAVLRAAALTRQMCQKYGIPVTKLSASDLKAGKKGICGHVDVSNAWHQSDHDDPGPDFPWAEFMAAVKGGATNPDELELTVSQFSDLTKRLQGMQEQTHHDLGVVQTKLATMDTVKNPRTGAKWSLKDAIWSIWYYVLENRDRIAALEKKVK
modifications: PACL10
notes: 29.4 kDa
Broadly, the MIC is the smallest concentration in the dilution series that meets the test's criterion for growth inhibition. Read a low MIC as inhibition by little substance. What is called MBC is the lowest tested concentration that kills the bacteria rather than only halting them. Low readings indicate greater bactericidal potency, high ones weaker bactericidal potency. Turning to B1, the MIC against Propionibacterium acnes [1] (clade IA1, strain 1) was 6.4 μg/mL and 0.218 μM; against Propionibacterium acnes [1] (clade IA1, strain 5), 12.8 μg/mL and 0.436 μM; against Propionibacterium acnes [1] (clade IA1, strain 7), 6.4 μg/mL and 0.218 μM; against Propionibacterium acnes [1] (clade IA1, strain 15), 6.4 μg/mL and 0.218 μM; in the assay on Propionibacterium acnes [1] (clade IA1, strain 27), 12.8 μg/mL and 0.436 μM; in the assay with Propionibacterium acnes [1] (clade IA2, strain 10), 6.4 μg/mL and 0.218 μM. Also, the MIC against Propionibacterium acnes [1] (clade IA2, strain 14) is 6.4 μg/mL and 0.218 μM; in the assay on Propionibacterium acnes [1] (clade IA2, strain 17), 6.4 μg/mL and 0.218 μM; in the assay with Propionibacterium acnes [1] (clade IA2, strain 31), 12.8 μg/mL and 0.436 μM; in the assay with Propionibacterium acnes [1] (clade IA2, strain 33A) it was 12.8 μg/mL and 0.436 μM; with Propionibacterium acnes [1] (clade IB, strain 13) it was 12.8 μg/mL and 0.436 μM; with Propionibacterium acnes [1] (clade II, strain 34A), 6.4 μg/mL and 0.218 μM. In addition, the “time for cfu/mL to drop below the detection limit” value in the assay on P. acnes 34A strain (at 2× MIC 12.8 μg/mL) is no more than 2 h; with P. acnes 34A strain (at MIC 6.4 μg/mL), no more than 3 h. Moreover, the “MIC of selected lyases relative to Propionibacterium acnes” value is 8 µg/mL in the assay with Propionibacterium acnes [2] (clade IA1, strain 1); 8 µg/mL in the assay with Propionibacterium acnes [2] (clade IA1, strain 5); 8 µg/mL with Propionibacterium acnes [2] (clade IA1, strain 7); 8 µg/mL with Propionibacterium acnes [2] (clade IA2, strain 10); 8 µg/mL in the assay with Propionibacterium acnes [2] (clade IA2, strain 17); 8 µg/mL in the assay with Propionibacterium acnes [2] (clade IA2, strain 33). In the assay with Propionibacterium acnes [2] (clade II, strain 34), the “MIC of selected lyases relative to Propionibacterium acnes” value was 8 µg/mL. Moreover, the MBC in the assay on Propionibacterium acnes [3] (clade IA1, strain 1) is 25.6 μg/mL and 0.871 μM; against Propionibacterium acnes [3] (clade IA1, strain 5) it was 12.8 μg/mL and 0.436 μM; with Propionibacterium acnes [3] (clade IA1, strain 7) it was 12.8 μg/mL and 0.436 μM; in the assay on Propionibacterium acnes [3] (clade IA1, strain 15) it was 25.6 μg/mL and 0.871 μM; with Propionibacterium acnes [3] (clade IA1, strain 27), >25.6 μg/mL and >0.871 μM; against Propionibacterium acnes [3] (clade IA2, strain 10), 12.8 μg/mL and 0.436 μM. In addition, the MBC was >25.6 μg/mL and >0.871 μM against Propionibacterium acnes [3] (clade IA2, strain 14); 25.6 μg/mL and 0.871 μM in the assay with Propionibacterium acnes [3] (clade IA2, strain 17); >25.6 μg/mL and >0.871 μM against Propionibacterium acnes [3] (clade IA2, strain 31); >25.6 μg/mL and >0.871 μM in the assay with Propionibacterium acnes [3] (clade IA2, strain 33A); 25.6 μg/mL and 0.871 μM against Propionibacterium acnes [3] (clade IB, strain 13); 6.4 μg/mL and 0.218 μM with Propionibacterium acnes [3] (clade II, strain 34A).

B2: PACL403: chimeric lysin, amino acid sequence SEQ ID NO: 271 (protein)
chain: MTFIQAKHHGGHNNPPVTRLVIHATCPDVGYPSASRAGRAVSTAHYFQETTRPASAHYICDISTTVQCLSEETVGYHAPPNSHSIGIEICADGGSHASFSNPAHAYTREQWLSPQVWPAVERAAMLARGICQRHNIPIRRLSIADVKAGKRGICGHNEVSEAFHQSDHDDPGPYFPWDGFIALVNGHSAPSRQEELTVSDGGEVRTPGQQDTKPSVPTPSLTEIGDQDMNGCYYNLNSKTRTYLIFDSRSGFYHEFSQGNGNGPMSPDYVNPIAKGWDTGSWPAISPGHAKVLKAALDKVRKGI
modifications: PACL403
As for B2, the “bactericidal activity against biofilm-associated P. acnes” value in assay [4] is recorded as “killed biofilm-associated P. acnes”. For the same molecule, the “MIC of selected lyases relative to Propionibacterium acnes” value in the assay with Propionibacterium acnes [2] (clade IA1, strain 1) came to 16 µg/mL; with Propionibacterium acnes [2] (clade IA1, strain 5), 16 µg/mL; in the assay on Propionibacterium acnes [2] (clade IA1, strain 7), 16 µg/mL; in the assay with Propionibacterium acnes [2] (clade IA2, strain 10) it was 8 µg/mL; in the assay on Propionibacterium acnes [2] (clade IA2, strain 17) it was 8 µg/mL; in the assay on Propionibacterium acnes [2] (clade IA2, strain 33), 8 µg/mL. For the same molecule, the “MIC of selected lyases relative to Propionibacterium acnes” value in the assay on Propionibacterium acnes [2] (clade II, strain 34) came to 16 µg/mL.
